Data set [1] concerns the target T1, VEGF165 (UniProt P15692-4 P15692-4:27-191). Briefly: EMSA; PBS + 0.005% NP-40, 37 C; shift band lost. To be noted: chain copies: 2. As to the method: (§1) The purified oligomer of the candidate sequence (T-00199, see below for the sequence in Table 4) was added into the binding solution to adjust to 0.2 μM, and a folding operation (at 95° C. for 5 minutes→(−0.1° C./sec)→at 25° C.) was performed to form tertiary structures. Thereafter, VEGF165 was diluted with the binding solution to 0.2 μM and mixed with the folded DNA solution, and the resultant was incubated at 37° C. for 30 minutes. The sample incubated was subjected to electrophoresis with 10% unmodified polyacrylamide gel to analyze on whether a band indicative of the DNA-protein complex could be detected. DNA was stained with SYBR Gold, and detected with blue light at 470 nm.
Subsequently, to determine whether the novel artificial base dDsbn is involved in binding to VEGF165, evaluation was performed with oligomers obtained by substituting dDsbn with dDs or dA (dDs-substituted form: T-00200, dA-substituted form: T-00201, see below for the sequences in Table 4). The oligomers were synthesized with a chemical synthesis method, and purified with an OPC (cartridge). For EMSA, a folding operation and reaction were performed as described above, and analysis was performed with unmodified polyacrylamide (in FIG. 2, dDs: two lanes in the center, dA: two lanes in the right).

Data set [2] has as its target T2, sIL-6R (soluble interleukin-6 receptor) (UniProt P08887 P08887:20-355). Kind of data set: EMSA; PBS + 0.005% NP-40, room temperature; shift band lost. Here is the method:
(§2) Analysis was performed by EMSA on whether the most concentrated candidate sequence binds to the target protein. First, an oligomer corresponding to the candidate sequence (T-00247, see below for the sequence in Table 9) was synthesized with a chemical synthesis method, and purified with an OPC (cartridge). The purified oligomer of the candidate sequence was added into the binding solution to adjust to 0.2 μM, and a folding operation (at 95° C., for 5 minutes→(−0.1° C./sec)→at 25° C.) was performed to form tertiary structures. Thereafter, sIL-6R was diluted with the binding solution to 0.6 μM and mixed with the folded DNA solution, and the resultant was incubated at room temperature for 30 minutes. The sample incubated was subjected to electrophoresis with 8% unmodified polyacrylamide gel to analyze on whether a band indicative of the DNA-protein complex could be detected. DNA was stained with SYBR Gold, and detected with blue light at 470 nm.
Subsequently, to determine whether the novel artificial base dDscp is involved in binding to sIL-6R, evaluation was performed with oligomers obtained by substituting dDscp with dDs or dA (dDs-substituted form: T-00248, dA-substituted form: T-00249, see below for the sequences in Table 9). The oligomers were synthesized with a chemical synthesis method, and purified with an OPC (cartridge). […]
In general terms: A gel shift assay detects complexes by their altered migration in electrophoresis.

For data set [3], the target named is T2, sIL-6R (soluble interleukin-6 receptor). The description is as above. As to the method: as §1, with “sequence” for “sequence (T-00199, see below for the sequence in Table 4)”, “sIL-6R” for “VEGF165”, “room temperature” for “37° C.”, “8%” for “10%”, “nm (two lanes in the left in FIG. 4).” for “nm.”
Subsequently, to determine whether the novel artificial base dDsbn is involved in binding to sIL-6R, evaluation was performed with oligomers obtained by substituting dDsbn with dDs or dA (dDs-substituted form: T-00203, dA-substituted form: T-00204, see below for the sequences in Table 5). The oligomers were synthesized with a chemical synthesis method, and purified with an OPC (cartridge). For EMSA, a folding operation, reaction, and analysis with unmodified polyacrylamide were performed as described above (FIG. 4).
The source holds these as a separate data set.

Data set [4] has as its target T1, VEGF165. Kind of data set: EMSA; PBS + 0.005% NP-40, 37 C; shift band lost. To be noted: chain copies: 2. Here is the method:
as §2, with “(T-00244,” for “(T-00247,”, “8)” for “9)”, “VEGF165” for “sIL-6R”, “0.2” for “0.6”, “37° C.” for “room temperature”
Subsequently, to determine whether the novel artificial base dDscp is involved in binding to VEGF165, evaluation was performed with oligomers obtained by substituting dDscp with dDs or dA (dDs-substituted form: T-00245, dA-substituted form: T-00246, see below for the sequences in Table 8). The oligomers were synthesized with a chemical synthesis method, and purified with an OPC (cartridge). […]
This is another data set of the same source.

Read-outs that look alike come from different tables or passages of the source.

T1 sequence (P15692 other isoform, or with tags, fused parts or gaps): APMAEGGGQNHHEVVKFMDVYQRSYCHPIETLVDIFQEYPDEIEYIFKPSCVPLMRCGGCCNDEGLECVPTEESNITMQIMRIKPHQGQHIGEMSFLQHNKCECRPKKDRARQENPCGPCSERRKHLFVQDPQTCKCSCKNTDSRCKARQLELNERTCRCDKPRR
T2 sequence (P08887 20-355, one chain of several): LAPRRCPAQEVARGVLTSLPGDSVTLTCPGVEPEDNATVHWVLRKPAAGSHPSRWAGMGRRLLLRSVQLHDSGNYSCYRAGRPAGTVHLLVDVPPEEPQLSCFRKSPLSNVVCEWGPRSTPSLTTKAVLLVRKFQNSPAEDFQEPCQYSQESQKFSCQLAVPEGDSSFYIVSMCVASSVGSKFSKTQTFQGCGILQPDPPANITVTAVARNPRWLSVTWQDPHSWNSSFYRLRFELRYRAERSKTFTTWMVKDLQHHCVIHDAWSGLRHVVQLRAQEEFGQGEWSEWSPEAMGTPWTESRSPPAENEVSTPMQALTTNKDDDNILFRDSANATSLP

B1: T-00201 (ssDNA)
DNA: CTCCATTGACTCGGCTTAAACTCCCGTCAGTTATGAATAGGTACGCATGCGGAGTTCGCTACCCCGCCATGGTCATATTGGGGTGCTCCTTGGCT
With B1, the binding result with VEGF165 [1] is “no binding”.

B2: T-00249 (ssDNA)
DNA: GCGTGTTGAGCTGTATTAGGGTGTCAGGAAGGATTCGGGGGTGGATTTAGGGGGGGATCGTTGTGGAGGCGATACAATCCTGATCCATGAGACGG
Regarding B2, the binding result in data set [2] is reported as “no binding”.

B3: T-00204 (ssDNA)
DNA: CTCCATTGACTCGGCTTAAACTCCCAGGAGGTGGTGGGGGTGGGATTAGGGTTGGGATTGGAGGGGTGTCGGTCATATTGGGGTGCTCCTTGGCT
For B3, the binding result in data set [3] is “no binding”.

B4: T-00246 (ssDNA)
DNA: GCGTGTTGAGCTGTATTAGGGTGTCAGGTTTTGGTCAGGCGTTCAAACGTAGAGGAATGGACACTTCGGCGATACAATCCTGATCCATGAGACGG
For B4, the binding result with VEGF165 [4] is recorded as “no binding”.

These data come from patent publication US20240182908, “DEOXYRIBONUCLEOSIDE OR DEOXYRIBONUCLEOTIDE HAVING NOVEL ARTIFICIAL BASE APPLICABLE TO SCREENING FOR DNA APTAMER, AND NUCLEIC ACID CONTAINING THE SAME” (TAGCYX BIOTECHNOLOGIES INC., published 2024).
